For data set [1], the target named is T1, MafG-His (UniProt O15525 1-162). In words: EMSA; MafG 0.5 or 1 nM; EMSA: 0.5x TM (100 mM Tris-HCl pH 7.5, 20 mM MgSO4 as printed), 1 mM DTT, 1 ug BSA, 100 ng poly(dA)-poly(dT), 2-10 fmol probe, 20 C, 1 h; proteins stored in 50. The following applies: protein: recombinant; tags: 6xHis (pRSET A); chain copies: 2; label: 32P end label. In general terms: Mobility shift assays separate free from complexed probe on a gel.

The next data set concerns the target GST-HBZ (HTLV-1, UniProt P0C746-2 1-206). As to the kind of experiment: EMSA; HBZ 50 nM, no MafG; EMSA: 0.5x TM (100 mM Tris-HCl pH 7.5, 20 mM MgSO4 as printed), 1 mM DTT, 1 ug BSA, 100 ng poly(dA)-poly(dT), 2-10 fmol probe, 20 C, 1 h; proteins stored in 50. The following applies: protein: recombinant; tags: GST; chain copies: 2; label: 32P end label.
Another data set has as its target GST-HBZ-AD (HTLV-1, UniProt P0C746-2 1-57). In words: EMSA; HBZ-AD 50 nM, no MafG; EMSA: 0.5x TM (100 mM Tris-HCl pH 7.5, 20 mM MgSO4 as printed), 1 mM DTT, 1 ug BSA, 100 ng poly(dA)-poly(dT), 2-10 fmol probe, 20 C, 1 h; proteins stored in 50. Conditions: protein: recombinant; tags: GST; label: 32P end label.
For data set [2], the target named is T2, MafG-His;T7-HBZ-bZIP (human?;HTLV-1, UniProt O15525;P0C746-2 1-162;120-206, |). As to the kind of experiment: EMSA; increased over MafG alone; MafG 0.5 nM; EMSA: 0.5x TM (100 mM Tris-HCl pH 7.5, 20 mM MgSO4 as printed), 1 mM DTT, 1 ug BSA, 100 ng poly(dA)-poly(dT), 2-10 fmol probe, 20 C, 1 h; proteins stored in 50. The following applies: protein: recombinant;recombinant; tags: 6xHis (pRSET A);T7; copies: 1;1; label: 32P end label.

Data set [3] deals with T1, MafG-His. As to the kind of experiment: EMSA; EMSA: 0.5x TM (100 mM Tris-HCl pH 7.5, 20 mM MgSO4 as printed), 1 mM DTT, 1 ug BSA, 100 ng poly(dA)-poly(dT), 2-10 fmol probe, 20 C, 1 h; proteins stored in 50. The following applies: protein: recombinant; tags: 6xHis (pRSET A); chain copies: 2; label: 32P end label.
For data set [4], the target named is T2, MafG-His;T7-HBZ-bZIP. In words: EMSA; most pronounced increase over MafG alone; EMSA: 0.5x TM (100 mM Tris-HCl pH 7.5, 20 mM MgSO4 as printed), 1 mM DTT, 1 ug BSA, 100 ng poly(dA)-poly(dT), 2-10 fmol probe, 20 C, 1 h; proteins stored in 50. Conditions: protein: recombinant;recombinant; tags: 6xHis (pRSET A);T7; copies: 1;1; label: 32P end label.
Data set [5] deals with T1, MafG-His. In words: EMSA; MafG 0.5 nM; higher apparent affinity than distal MAREs; EMSA: 0.5x TM (100 mM Tris-HCl pH 7.5, 20 mM MgSO4 as printed), 1 mM DTT, 1 ug BSA, 100 ng poly(dA)-poly(dT), 2-10 fmol probe, 20 C, 1 h; proteins stored in 50. Conditions: protein: recombinant; tags: 6xHis (pRSET A); chain copies: 2; label: 32P end label.
Data set [6] concerns the target T2, MafG-His;T7-HBZ-bZIP. As to the kind of experiment: EMSA; HBZ-bZIP diminished the MafG complex; authors conclude heterodimer does not bind; EMSA: 0.5x TM (100 mM Tris-HCl pH 7.5, 20 mM MgSO4 as printed), 1 mM DTT, 1 ug BSA, 100 ng poly(dA)-poly(dT), 2-10 fmol probe, 20 C, 1 h; proteins stored in 50. Conditions: protein: recombinant;recombinant; tags: 6xHis (pRSET A);T7; copies: 1;1; label: 32P end label.

Data set [7] has as its target T2, MafG-His;T7-HBZ-bZIP. In words: EMSA; increased over MafG alone; EMSA: 0.5x TM (100 mM Tris-HCl pH 7.5, 20 mM MgSO4 as printed), 1 mM DTT, 1 ug BSA, 100 ng poly(dA)-poly(dT), 2-10 fmol probe, 20 C, 1 h; proteins stored in 50. The following applies: protein: recombinant;recombinant; tags: 6xHis (pRSET A);T7; copies: 1;1; label: 32P end label.

Sequence of GST-HBZ (P0C746 8-209, tags left off): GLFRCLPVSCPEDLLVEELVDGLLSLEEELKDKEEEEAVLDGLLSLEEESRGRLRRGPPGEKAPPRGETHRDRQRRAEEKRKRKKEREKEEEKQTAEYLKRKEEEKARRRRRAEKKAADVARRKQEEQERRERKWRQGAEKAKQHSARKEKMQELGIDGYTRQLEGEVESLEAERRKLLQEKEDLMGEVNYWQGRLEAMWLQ
Sequence of GST-HBZ-AD (P0C746 8-60, tags left off): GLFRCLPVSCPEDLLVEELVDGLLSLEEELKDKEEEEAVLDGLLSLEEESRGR

B1: T-MARE probe (dsDNA)
DNA 1: AGCTCGGAATTGCTGACTCAGCATTACTCTCG
DNA 2: CGAGAGTAATGCTGAGTCAGCAATTCCGAGCT
On to B1, for which the binding result was “binds” with MafG-His [1], “no binding” in the data set with GST-HBZ, “no binding” with GST-HBZ-AD and “binds” with MafG-His;T7-HBZ-bZIP [2].

B2: MARE MT probe (dsDNA)
DNA 1: AGCTCGGAATCAATGACTCATTGTTACTCTCG
DNA 2: CGAGAGTAACAATGAGTCATTGATTCCGAGCT
In the case of B2, in the data set with MafG-His [3], the binding result is “no binding”.

B3: HMOX1 Distal 3 MARE probe (dsDNA)
DNA 1: TGTCTGTTTTCGCTGAGTCACGGTCTAGAGAT
DNA 2: ATCTCTAGACCGTGACTCAGCGAAAACAGACA
Turning to B3, in the data set with MafG-His;T7-HBZ-bZIP [4], the binding result is listed as “binds”.

B4: HMOX1 proximal MARE probe (dsDNA)
DNA 1: TGCTAGATTTTGCTGAGTCACCAGTGCCTCCT
DNA 2: AGGAGGCACTGGTGACTCAGCAAAATCTAGCA
For B4, the figures for the binding result in the data set with MafG-His [5] and in the data set with MafG-His;T7-HBZ-bZIP [6] were “binds” and “no binding”, respectively.

B5: HMOX1 Distal 2 MARE probe (dsDNA)
DNA 1: GATCTGTTTTCGCTGAGTCACGGTCCCGGTGT
DNA 2: ACACCGGGACCGTGACTCAGCGAAAACAGATC
For B5, the binding result in the data set with MafG-His;T7-HBZ-bZIP [7] is “binds”.

B6: HMOX1 Distal 1 MARE probe (dsDNA)
DNA 1: GTGTTTTTCCTGCTGAGTCACGGTCCCGAGGT
DNA 2: ACCTCGGGACCGTGACTCAGCAGGAAAAACAC
Turning to B6, the binding result in the data set with MafG-His;T7-HBZ-bZIP [7] is “binds”.

These data come from paper PMC6623464, “HTLV-1 basic leucine zipper factor protects cells from oxidative stress by upregulating expression of Heme Oxygenase I”.
